Data as given in paper PMC11370617.

Tests used:
[1] = biological target: Mus musculus arginyltransferase 1 isoform 1 (MmATE1-1), affinity tag cleaved, apo (Mus musculus) (UniProt Q9Z2A5); test: SEC-MALS
[2] = biological target: Mus musculus arginyltransferase 1 isoform 1 (MmATE1-1), affinity tag intact, apo (Mus musculus) (UniProt Q9Z2A5); test: SEC-MALS

percent of the total protein that is dimeric [1]	percent of the total protein that is dimeric [2]	Substance
< 20%	–	Mus musculus arginyltransferase 1 isoform 1 (MmATE1-1), affinity tag cleaved, apo (from UniProt Q9Z2A5 1-516) (enzyme)
–	< 20%	Mus musculus arginyltransferase 1 isoform 1 (MmATE1-1), affinity tag intact, apo (from UniProt Q9Z2A5 1-516) (enzyme)
